Results: patent US20120328599A1

How the values were obtained:
[1] = target: FGFR1-RE kinase domain (R577E mutant, aa 458-765) (human) (UniProt P11362)
[2] = target: wt-FGFR1 kinase domain (aa 458-765) (human) (UniProt P11362)

| Substance | in vitro trans phosphorylation of purified kinase domains with ATP and Mg2+, native gel [1] | in vitro trans phosphorylation of purified kinase domains with ATP and Mg2+, native gel [2] |
| --- | --- | --- |
| FGFR1-RE kinase domain (R577E mutant, aa 458-765) (from UniProt P11362) (enzyme) | < 30 min | – |
| wt-FGFR1 kinase domain (aa 458-765) (from UniProt P11362) (enzyme) | – | < 10 min |
